T1: BH-H2 (Sino Biological, Cat #11559-H08H) (UniProt O75144 19-258)
T1 sequence (looked up): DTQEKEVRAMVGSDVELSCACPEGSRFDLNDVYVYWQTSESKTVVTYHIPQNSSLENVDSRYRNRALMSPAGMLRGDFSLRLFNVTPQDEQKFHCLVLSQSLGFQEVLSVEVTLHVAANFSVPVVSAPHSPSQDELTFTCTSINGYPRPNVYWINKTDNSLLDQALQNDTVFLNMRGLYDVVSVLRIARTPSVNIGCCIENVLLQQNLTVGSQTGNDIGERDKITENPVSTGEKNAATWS


What was measured:
[1] = biological target: T2, human PD-L1 expressed on cell surface (human, UniProt Q9NZQ7 19-290); test: cell-based or functional assay
[2] = biological target: T2, human PD-L1 expressed on cell surface; test: cell-based or functional assay; remark: listed apart in the source
[3] = biological target: T1, BH-H2 (Sino Biological, Cat #11559-H08H); test: ELISA
[4] = biological target: T3, cynomolgus PD-L1-His (Sino Biological, Cat. 90251-C08H) (cynomolgus, UniProt Q9NZQ7 19-238 (human entry)); test: ELISA, coated cyno PD-L1-His
T3 construct: Bought protein; also called Cyno PD-L1; Cynomolgus PD-L1 ECD-His; not shown: His tag
Method: Briefly, Maxisorp plates (Nunc) were coated with 100 ul/well of 0.5 μg/ml human PD-L1-His (Sino Biological, Cat #10084-H08H) or cynomolgus PD-L1-His (Sino Biological, Cat. 90251-C08H) protein diluted in 1×PBS (GIBCO) overnight at 4° C. Plates were washed three times with 300 μl/well washing buffer (1×PBST, diluted from 20×PBST (Thermo Scientific) with distilled water)) and then blocked with 300 μl/well of blocking buffer (1×PBST/I % BSA) for 2 hours at RT on shaker (100 rpm). Plates were washed and added with 100 μl/well of testing antibodies, which were serial diluted with assay buffer (PBST/1% BSA). The antibodies were incubated at room temperature for 2 hours on plate shaker at 100 rpm. Plates were washed. One hundred microliter of horseradish peroxidase (HRP) conjugated detection antibody was added into each well and incubated at room temperature for 1 hour on plate shaker at 100 rpm. Plates were washed and added with 100 μl/well TMB substrate for color development at room temperature in dark for up to 10 minutes. After addition of 50 μl/well of stop solution (1N H₂SO₄), plates were read at 450 nm on a plate reader (SpectraMax M5).
Anti-HEL isotype control (Biolntron) was used as negative control.

[5] = biological target: T4, human PD-L1-His (Sino Biological, Cat #10084-H08H) (human, UniProt Q9NZQ7 19-238); test: BLI (Gator), antibody on HFC probe, human PD-L1-His in solution
T4 construct: Bought protein; also called human PD-L1 ECD-His; recombinant human PD-L1-His protein; not shown: His tag
Method: The affinity of the binding of the exemplary anti-PD-L1 antibodies of the present disclosure was determined. Assay was performed according to the protocol recommended by Gator or Gator Plus (Gator Bio Inc.). Briefly, human PD-L1-His (Sino Biological, Cat #10084-H08H) was serially diluted 4-fold, starting at 4 μg/ml. After three times of regeneration in generation buffer (Gator Bio, Cat #120012) and neutralization of HFC probe (Gator Bio, Cat #160003), 1 μg/ml of antibody to be tested in Q buffer (Gator Bio, Cat #120010) was immobilized onto HFC probe. After a baseline step, probe immobilized with antibody was dipped into antigen solutions. The association and dissociation of antigen from antibody was measured on BLI machine Gator. Affinity was calculated using Gator Bio analysis software.
Table 22 below summarizes the binding affinity to human PD-L1 using Gator.

[6] = biological target: T5, human PD-L1-mFc fusion protein (Sino Biological, Cat #10084-H05H) (human, UniProt Q9NZQ7 19-239); test: competition ELISA, coated human PD-L1-mFc, competitor human PD-1-His-hFc-Biotin
T5 construct: Bought protein; also called human PD-L1 mouse Fc fusion protein; not shown: mouse Fc
Method: Briefly, microplates were precoated with […] of human PD-L1-mFc fusion protein (Sino Biological, Cat #10084-H05H) diluted in 1×PBS (GIBCO) and incubated overnight at 4° C.; Plates were washed four times with 300 μl/well washing buffer (1×PBST, diluted from 20×PBST (Thermo Scientific) with distilled water)) and then blocked with 300 μl/well of blocking buffer (1×PBST/3% BSA) for 2 hours at RT on shaker (100 rpm). […] Plates were washed and added with 100 μl/well TMB substrate for color development at room temperature in dark for up to 10 minutes. After addition of 50 μl/well of stop solution (1N H₂SO₄), plates were read at 450 nm on a plate reader (SpectraMax M5).

[7] = biological target: T2, human PD-L1 expressed on cell surface; test: cell-based or functional assay; remark: listed apart in the source
[8] = biological target: T4, human PD-L1-His (Sino Biological, Cat …); test: competition ELISA (epitope binning): coated human PD-L1-His, antibody pre-incubated, then biotinylated Avelumab (competitor), detection with HRP-avidin

T2 sequence (Q9NZQ7 19-290 limits assumed): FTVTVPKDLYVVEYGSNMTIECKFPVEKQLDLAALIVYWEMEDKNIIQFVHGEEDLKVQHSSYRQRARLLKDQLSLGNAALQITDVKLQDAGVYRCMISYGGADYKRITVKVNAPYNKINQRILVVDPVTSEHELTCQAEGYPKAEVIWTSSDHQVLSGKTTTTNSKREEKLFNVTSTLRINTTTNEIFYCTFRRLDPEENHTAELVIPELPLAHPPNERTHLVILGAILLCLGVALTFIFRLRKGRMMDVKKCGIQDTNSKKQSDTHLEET
T5 sequence (Q9NZQ7 19-239 limits assumed): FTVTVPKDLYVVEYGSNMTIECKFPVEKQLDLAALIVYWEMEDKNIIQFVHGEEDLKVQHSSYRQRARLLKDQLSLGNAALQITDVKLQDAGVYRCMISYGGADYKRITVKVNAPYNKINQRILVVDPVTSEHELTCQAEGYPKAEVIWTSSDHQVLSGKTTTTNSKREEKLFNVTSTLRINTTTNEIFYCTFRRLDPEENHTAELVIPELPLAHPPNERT
T3 sequence (Q9NZQ7 other isoform, or with tags, fused parts or gaps C08H C08H limits assumed): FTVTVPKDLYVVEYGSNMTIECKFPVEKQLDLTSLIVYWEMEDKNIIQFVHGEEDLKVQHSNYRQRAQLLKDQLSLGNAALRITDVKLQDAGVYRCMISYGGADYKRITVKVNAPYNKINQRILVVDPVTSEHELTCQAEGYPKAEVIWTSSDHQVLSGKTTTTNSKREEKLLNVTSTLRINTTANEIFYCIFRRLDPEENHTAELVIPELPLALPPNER
T4 sequence (Q9NZQ7 19-238): as the sequence (Q9NZQ7 other isoform, or with tags, fused parts or gaps C08H C08H limits assumed) above, with T33A, S34A, N62S, Q68R, R82Q, L173F, A185T, I192T, L215H counted along it

Row | Binder | IC50 (nM), Promega PD-1/PD-L1 blockade reporter assay [1] [nM] | Internalization (%), FACS, 0.25 µg/ml, 2 h [2] [%] | Internalization (%), FACS, 0.25 µg/ml, 4 h [2] [%] | Internalization (%), FACS, 0.5 µg/ml, 2 h [2] [%] | Internalization (%), FACS, 0.5 µg/ml, 4 h [2] [%] | Internalization (%), FACS, 1 µg/ml, 2 h [2] [%] | Internalization (%), FACS, 1 µg/ml, 4 h [2] [%] | Internalization (%), FACS, 2 µg/ml, 2 h [2] [%] | Internalization (%), FACS, 2 µg/ml, 4 h [2] [%] | binding result [3] | EC50 [4] [nM] | Kd [5] [nM] | koff [5] [s⁻¹] | kon [5] [M⁻¹ s⁻¹] | IC50 [6] [nM] | IC50 (nM), Promega PD-1/PD-L1 blockade reporter assay, another assay [7] [nM] | IC50 (read off the curve) [8] [µg/mL]
1 | 74A9 (antibody, human IgG1, V domains shown) VH: QSVEESGGRLVTPGTPLTLTCAVSGFSLSTYALGWVRQAPGKGLEWIGSISIGGATYYASWAKGRFTISKTSTTVDLKIASPTTEDTATYFCARNVDSIYLDAFHTWGPGTLVTVSL VL: DIVMTQTPASVEAAVGGTVTIKCQASQNIYNNLAWYQQKPGQPPKLLIYRASTLASGVPSRFKGSGSGTEYTLTISDLECDDAATYYCQTYYLTTTTNAFGGGTEVVVK | 0.29 | 11.5 | 11 | 13.2 | 12 | 17.7 | 9.2 | 13.9 | 11.7 | no binding | 0.0198 | 0.36 | 0.000234 | 643000 | 2.3 | 0.46 | 
2 | 33E8 (antibody, human IgG1, V domains shown) VH: QSLEESGGDLVKPGASLTLTCTASGFYFSSGYDMSWVRQAPGKGLEWIASIFTTSGSTWYANWAKGRFTISKTSSTTVTLQMTSLTDADTATYFCTKDGVGSFYMNLWGPGTLVTVSS VL: LVMTQTPASVEVAVGGTVTIKCQASQTIGSNLAWYQQRPGQPPKLLIYKAFTLASGVSSRFKGSGSGTQFTLTISGVECADAATYYCQQGATRINIDNAFGGGTEVVVK |  | 20.9 | 21.6 | 22.8 | 25.8 | 20.4 | 23.3 | 29.6 | 30.2 | no binding | 0.0414 | 1.16 | 0.000418 | 361000 | 3.1 | 0.38 | 
3 | 28B3 (antibody, human IgG1, V domains shown) VH: QSVEESGGRLVTPGTPLTLSCTASGFSLSSYYMIWVRQAPGKGLEYIGYVYTGSGNTWYASWAKGRFAISKASTTVDLMITSPTTEDTATYFCASGADGVYDWGWDIWGPGTLVTVSL VL: DIVMTQTPASVEAAVGDTVTIKCQASQSIYSLLAWYQQKPGQRPKLLIAGASNLESGVPSRFSGSGSGTEYTLTISALECADAATYYCQNNYDSGRIYGLAFGGGTEVVVK | 0.24 | 20.4 | 17.6 | 12 | 19.9 | 15.3 | 15.5 | 8.3 | 6 | no binding | 0.0177 | 0.09 | 7.6e-05 | 810000 | 1.5 | 0.33 | 

The next binders have a lower EC50 [4] than those just listed; values first:

Row | IC50 (nM), Promega PD-1/PD-L1 blockade reporter assay [1] [nM] | Internalization (%), FACS, 0.25 µg/ml, 2 h [2] [%] | Internalization (%), FACS, 0.25 µg/ml, 4 h [2] [%] | Internalization (%), FACS, 0.5 µg/ml, 2 h [2] [%] | Internalization (%), FACS, 0.5 µg/ml, 4 h [2] [%] | Internalization (%), FACS, 1 µg/ml, 2 h [2] [%] | Internalization (%), FACS, 1 µg/ml, 4 h [2] [%] | Internalization (%), FACS, 2 µg/ml, 2 h [2] [%] | Internalization (%), FACS, 2 µg/ml, 4 h [2] [%] | binding result [3] | EC50 [4] [nM] | Kd [5] [nM] | koff [5] [s⁻¹] | kon [5] [M⁻¹ s⁻¹] | IC50 [6] [nM] | IC50 (nM), Promega PD-1/PD-L1 blockade reporter assay, another assay [7] [nM] | IC50 (read off the curve) [8] [µg/mL] | Binder
4 | 0.52 | 15.2 | 12.3 | 17 | 14.2 | 14.4 | 12.4 | 17.8 | 12.6 | no binding | 0.013 | 0.61 | 0.000329 | 536000 | 2.1 |  |  | 33H7 (antibody, human IgG1, V domains shown) VH: QEQLVESGGGLVQPEGSLTVTCTASGFDLSRYFYMSWVRQAPGKGLEWIASISTGSDITDYASWAKGRFTISKTSSTTVTLQMTTLTAADTAIYFCARWTSGGGGFGLWGPGTLVTVSS VL: QVLTQTASPVSAAVGGTVTLNCQSSQSIYNNYLSWYQQRAGQPPKLLIYSTATLASGVPSRFKGSGSGTQFTLTISEIQCEDAATYYCQGYYSGYIWTFGGGTEVVVK
5 | 0.23 | 18.5 | 18.3 | 15.5 | 14.7 | 13.7 | 13.7 | 12.7 | 9.7 | no binding | 0.0113 | 0.06 | 3.6e-05 | 643000 | 1.9 | 0.35 |  | 27A2 (antibody, human IgG1, V domains shown) VH: QEQLEESGGGLVQPEGSLTLTCTASGFSFSSNHYMSWVRQAPGKGLEWIGSIGVGSGITDYASWAKGRFTISKASSTTLTLQMTTLTAADTAIYFCARWTSGGGGFGLWGPGTLVTVSS VL: QVLTQTSSPVSAAVGGTVTINCQSSQTIYSDYLFWYQQTPGQPPKLLIYQTSTLASGVPSRFKGSGSGTEFTLTISEIQCDDAATYYCQGYYSGYIWTFGGGTEVVVR
6 | 0.36 | 16.3 | 16 | 16.1 | 19 | 15.3 | 9.1 | 6.5 | 4.8 | no binding | 0.0076 | 0.58 | 0.000399 | 686000 | 2.1 |  | ~0.1 | 56H3 (antibody, human IgG1, V domains shown) VH: QEQLVESGGGLVQPEGSLTLTCTASEFSFSNNYYMSWVRQAPGKGLEWLGSIGIGSGITDYASWAKGRFTISKASSTTVTLQMTTLTAADTAIYFCARWTSGGGGFGLWGPGTLVTVSS VL: QVLTQTSSPVSAAVGGTVTINCQSSQTIYSDYLFWYQQKPGQPPKLLIYQTSTLASGVPSRFSGSGSGTQFTLTISGVQCDDAATYYCQGYYSGYIWTFGGGTEVVVN

— patent US20250171542A1 (ADEPT THERAPEUTICS, published 2025)
